Substitutions are numbered along the chain they refer to.

In assay [1] the target is T1, Pig Semaphorin3A-Sema Domain, TPP-20176 (pig, UniProt Q63548 21-569 (rat entry)).
T1 construct: produced inhouse
T1 chain: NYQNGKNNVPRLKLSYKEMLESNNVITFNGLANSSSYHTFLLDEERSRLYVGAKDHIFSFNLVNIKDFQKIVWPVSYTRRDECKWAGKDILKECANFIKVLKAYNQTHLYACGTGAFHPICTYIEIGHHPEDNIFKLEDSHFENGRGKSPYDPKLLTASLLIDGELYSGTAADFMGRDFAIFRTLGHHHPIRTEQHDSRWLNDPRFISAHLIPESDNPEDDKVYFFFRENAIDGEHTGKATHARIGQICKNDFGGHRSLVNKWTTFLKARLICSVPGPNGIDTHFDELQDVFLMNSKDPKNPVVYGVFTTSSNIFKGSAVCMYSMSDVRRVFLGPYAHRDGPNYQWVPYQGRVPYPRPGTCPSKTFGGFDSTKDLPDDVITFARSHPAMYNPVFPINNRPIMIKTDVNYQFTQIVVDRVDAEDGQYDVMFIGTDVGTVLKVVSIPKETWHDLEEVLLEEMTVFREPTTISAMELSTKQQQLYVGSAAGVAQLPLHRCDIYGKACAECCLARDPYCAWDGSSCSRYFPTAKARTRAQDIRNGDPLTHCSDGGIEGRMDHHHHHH
The assay can be described thus: SPR, captured antibody, Sema3A domain analyte. As to the method:
(§1) To assess the binding activity of anti-Sema3A antibodies binding assays were conducted using surface plasmon resonance (SPR). Binding assays were performed on a Biacore T200 instrument (Cytiva) at 25° C. using assay buffer HBS P+, 300 mM NaCl, 0.75 mM CaCl₂, 2.5 mM MgCl₂, 1 mg/ml BSA, 0.05% NaN₃. Antibodies were captured via anti-human Fc IgGs (“Human antibody capture kit”, Order No. BR100839, Cytiva) covalently amine coupled to a Series S CM5 sensor chip (Cytiva). The amine coupling was carried out according to the manufacturer's instructions using 1-ethyl-3-(3-dimethylaminopropyl) carbodiimide hydrochloride (EDC), N-hydroxysuccinimide (NHS) and ethanolamine HCl, pH 8.5 (“Amine Coupling Kit” BR-1000-50, Cytiva.). Human, mouse, cynomolgus, rat, dog and pig monovalent Sema3A domain were used as analytes in a concentration series from 0.024-3.125 nM in multi cycle kinetics mode. The sensor surface was regenerated with glycine pH 2.0 after each antigen injection. Obtained sensorgrams were double referenced (subtraction of reference flow cell signal and buffer injection) and were fitted to a 1:1 Langmuir binding model using the Biacore T200 Evaluation software obtaining the experimental fitted RMax value. To calculate the binding activity first the theoretical RMax needs to be calculated according to equation 1: […]
(§2) Binding activity was determined by dividing the experimental determined RMax by the theoretical calculated RMax according to equation 2: […]

Assay [2] addresses T2, Cyno Semaphorin3A-Sema Domain, TPP-19122 (cynomolgus (Macaca fascicularis), UniProt Q63548 21-569 (rat entry), limits assumed).
T2 construct: produced inhouse
T2 chain: T1 chain with D139N, T237S, S296F, V303I, V483I, A486T, V489I
The assay can be described thus: SPR, captured antibody, Sema3A domain analyte. The method, then: as §1, §2
(In general: In SPR one partner is held on a chip, and binding of the other changes the refractive index at the surface.)

Assay [3] concerns the target Human Semaphorin3A-Fc (R&D Systems), TPP-13211 (human). The assay is described as follows: cell-based or functional assay.
For assay [4], the target named is T3, Human Semaphorin3A-Fc (R&D Systems), TPP-13211 (human).
T3 construct: R&D Systems 1250-S3; also called recombinant human Sema3A-Fc chimera
T3 sequence (chain, as listed by the source limits assumed): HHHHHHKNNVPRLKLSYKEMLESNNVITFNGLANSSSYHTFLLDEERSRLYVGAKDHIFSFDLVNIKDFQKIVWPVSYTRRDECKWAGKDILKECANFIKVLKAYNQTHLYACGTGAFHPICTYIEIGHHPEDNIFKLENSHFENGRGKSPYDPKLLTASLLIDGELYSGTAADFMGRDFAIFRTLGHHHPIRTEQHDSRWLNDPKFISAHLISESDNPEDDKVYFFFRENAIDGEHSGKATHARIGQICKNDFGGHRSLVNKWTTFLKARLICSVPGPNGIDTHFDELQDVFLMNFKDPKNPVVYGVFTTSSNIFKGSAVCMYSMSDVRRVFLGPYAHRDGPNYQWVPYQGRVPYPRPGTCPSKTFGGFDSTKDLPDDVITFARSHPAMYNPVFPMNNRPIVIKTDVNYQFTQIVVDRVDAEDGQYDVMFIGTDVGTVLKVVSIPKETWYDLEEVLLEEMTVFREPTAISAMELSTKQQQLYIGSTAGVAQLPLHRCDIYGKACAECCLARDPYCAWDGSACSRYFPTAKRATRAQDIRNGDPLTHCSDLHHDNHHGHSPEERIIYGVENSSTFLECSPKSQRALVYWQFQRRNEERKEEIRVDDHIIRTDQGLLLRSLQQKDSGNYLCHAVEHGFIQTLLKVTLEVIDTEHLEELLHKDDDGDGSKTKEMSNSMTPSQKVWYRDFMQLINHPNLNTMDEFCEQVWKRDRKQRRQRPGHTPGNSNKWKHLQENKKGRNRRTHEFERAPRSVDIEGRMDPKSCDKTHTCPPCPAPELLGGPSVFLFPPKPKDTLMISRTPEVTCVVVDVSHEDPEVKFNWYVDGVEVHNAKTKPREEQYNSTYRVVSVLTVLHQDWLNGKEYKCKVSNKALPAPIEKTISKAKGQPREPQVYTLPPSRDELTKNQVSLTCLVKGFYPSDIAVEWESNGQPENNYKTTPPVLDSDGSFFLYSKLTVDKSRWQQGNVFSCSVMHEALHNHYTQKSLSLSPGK
The assay can be described thus: competition ELISA on coated TPP-13211, competitor biotinylated TPP-15370. As to the method: For screening in a competition ELISA setup, human Sema3a (TPP-13211) was coated onto 384-well plates (Greiner bio-one, 781077) with a concentration of 0.5 μg/ml in coating buffer (Carbonate-Basis pH 9.6, Candor 121125) over night at 10° C. After washing the plates 3 times with 50 μl PBS 0.05% Tween the plates were blocked with 50 μl Smart Block® (Candor 113500) for 1 h at 20° C. and washed again 3 times as described.
Subsequently, 20 μl of pre-mixed antibody solution was added to the plates and incubate for 18 h at 10° C. […] The total concentration of the added antibody solution was 0.25 μg/ml. During the incubation time the antibodies bound to the plates in a competitive manner as they compete for the same epitope on the human Sema3A protein.
After subsequent washing with 50 μl PBS 0.05% Tween for 3 times, 20 μl of a Streptavidin-HRP solution (R&D Systems, DY998, 1:200 in PBS 0.05% Tween 10% Smart Block) were added and incubated for 1 h and 20° C. followed by subsequent washing 3 times with 50 μl PBS 0.05% Tween and addition of 20 μl Amplex Red solution (Invitrogen A12222, 1:1000 in NaP-buffer 50 mM pH7.6 with 1:10000 of 30% H2O2). After a final incubation for 20 min at 20° C. the signal was determined using an emission wavelength of 595 nm and excitation of 530 nm.
On the technique in general: An ELISA detects its analyte on a solid surface through an enzyme-linked reagent.

B1: TPP-11489 (antibody, human IgG1, lambda)
heavy: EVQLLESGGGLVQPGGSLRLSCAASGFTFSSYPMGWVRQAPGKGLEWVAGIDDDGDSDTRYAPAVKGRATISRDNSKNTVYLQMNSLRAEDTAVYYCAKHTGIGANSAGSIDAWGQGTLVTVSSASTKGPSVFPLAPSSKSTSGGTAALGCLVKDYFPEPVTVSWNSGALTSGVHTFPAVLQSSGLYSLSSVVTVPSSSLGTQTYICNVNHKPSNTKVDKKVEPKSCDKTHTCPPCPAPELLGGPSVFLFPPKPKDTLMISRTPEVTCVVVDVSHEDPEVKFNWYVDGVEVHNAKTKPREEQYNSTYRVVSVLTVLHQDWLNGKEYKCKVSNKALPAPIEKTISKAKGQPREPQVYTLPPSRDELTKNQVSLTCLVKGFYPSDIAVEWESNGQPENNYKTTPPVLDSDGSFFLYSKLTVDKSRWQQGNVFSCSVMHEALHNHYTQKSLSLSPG
light: SYELTQPPSVSVSPGQTARITCSGGGSYTGSYYYGWYQQKPGQAPVTVIYYNNKRPSDIPERFSGSLSGTTNTLTISGVQAEDEADYYCGSADNSGDAFGTGTKVTVLGQPKAAPSVTLFPPSSEELQANKATLVCLISDFYPGAVTVAWKADSSPVKAGVETTTPSKQSNNKYAASSYLSLTPEQWKSHRSYSCQVTHEGSTVEKTVAPTECS
notes: human IgG1; also called Chiome; Chiome Prior Art (hIgG1)
Consider B1, for which the “Binding Activity [%]” value was 77% in assay [1] and 13% in assay [2].

B2: TPP-17755 (antibody, human IgG1, lambda, V domains shown)
VH: EVQLLESGGGLVQTGGSLRLSCAASGFTFSDYAMSWVRQAPGKGLEWVSWIYYDSGSKYYADSVKGRFTISRDNSKNTLYLQMNSLRAEDTAVYYCAKLNGDFDYWGQGTLVTVSS
VL: QSVLTQPPSASGTPGQRVTISCSGSSSNIGNNDVSWYQQLPGTAPKLLIYADSHRPSGVPDRFSGSKSGTSASLAISGLRSEDEADYYCGAWDSSLSGYVFGGGTKLTVLG
notes: also called Samsung; Samsung Prior Art F11
B2: the “EC50 [nM], MCM assay” value in assay [3] was found to be 11.3 nM. In addition, the “Binding Activity [%]” value in assay [1] was 60%; in assay [2] it was 53%.

B3: TPP-30788 (antibody, human IgG1, kappa, V domains shown)
VH: EVQLVESGGGLVQPGGSLRLSCAASGFTFSSYYMSWVRQAPGKGLEWVSTIIKSGGYAYYPDSVKDRFTISRDNSKNTLYLQMSSLRAEDTAVYYCVRGGQGAMDYWGQGTTVTVSS
VL: EIVLTQSPATLSLSPGERATLSCRASQSIGDYLHWYQQKPGQAPRLLIKYASQSISGIPARFSGSGSGTDFTLTITSLEPEDFAVYYCQQGYSFPYTFGGGTKLEIKR
notes: prior art, WO 2020/225400; also called BI clone I; Böhringer (BI) Clone I
As to B3, in assay [3], the “EC50 [nM], MCM assay” value is 1.43 nM. For the same molecule, the “Binding Activity [%]” value in assay [1] and in assay [2] was 107% throughout.

B4: TPP-30789 (antibody, human IgG1, kappa, V domains shown)
VH: B3 VH with T28P
VL: B3 VL
notes: prior art, WO 2020/225400; also called BI clone II; Böhringer (BI) Clone II
Take B4: the “Binding Activity [%]” value in assay [1] and in assay [2] was 103% throughout.

B5: TPP-30790 (antibody, human IgG1, kappa, V domains shown)
VH: B3 VH with P14L, S84N, R98K
VL: B3 VL with K49Y, T76S
notes: prior art, WO 2020/225400; also called BI clone III; Böhringer (BI) Clone III
With B5, the “Binding Activity [%]” value in assay [1] and in assay [2] was 92% in each case.

B6: TPP-30791 (antibody, human IgG1, kappa, V domains shown)
VH: B3 VH with V12L, P14L, Y80N, S84N, R98K
VL: B3 VL with T76S
notes: prior art, WO 2020/225400; also called BI clone IV; Böhringer (BI) Clone IV
As to B6, the “Binding Activity [%]” value in assay [1] came to 105%; in assay [2] it was 107%.

B7: TPP-23337 (antibody, human IgG4 S228P, lambda, V domains shown)
VH: EVQLLESGGGLVQPGGSLRLSCAASGFTFSSYAMSWVRQAPGKGLEWVSAIGYGGDTYYADSVKGRFTISRDNSKNTLYLQMNSLRAEDTAVYYCARRDDYTSRDAFDYWGQGTLVTVSS
VL: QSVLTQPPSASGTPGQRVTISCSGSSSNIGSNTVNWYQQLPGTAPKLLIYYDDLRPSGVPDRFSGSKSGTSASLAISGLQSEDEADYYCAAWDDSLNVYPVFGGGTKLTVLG
B7: the “EC50 [nM], MCM assay” value in assay [3] turned out to be 0.33 nM. For the same molecule, in assay [4], the “VAL norm to TPP-9809 (1 to 1 ratio)” value turned out to be 0.27 and the “VAL norm to TPP-9809 (1 to 5 ratio)” value came out at 0.14.

B8: TPP-23346 (antibody, human IgG4 S228P, lambda, V domains shown)
VH: B7 VH with S30Y, S35L, Y53T
VL: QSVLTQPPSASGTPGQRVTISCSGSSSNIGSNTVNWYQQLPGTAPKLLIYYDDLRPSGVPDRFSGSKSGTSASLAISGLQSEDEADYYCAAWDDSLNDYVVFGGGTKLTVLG
As to B8, the “EC50 [nM], MCM assay” value in assay [3] amounted to 1.27 nM. In assay [4], the “VAL norm to TPP-9809 (1 to 1 ratio)” value was determined as 0.22 and the “VAL norm to TPP-9809 (1 to 5 ratio)” value amounted to 0.13.

B9: TPP-23340 (antibody, human IgG4 S228P, lambda, V domains shown)
VH: B7 VH
VL: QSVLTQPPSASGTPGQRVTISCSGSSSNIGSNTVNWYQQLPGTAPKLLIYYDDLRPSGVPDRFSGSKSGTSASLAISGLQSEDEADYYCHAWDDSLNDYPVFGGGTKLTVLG
For the molecule B9, in assay [3], the “EC50 [nM], MCM assay” value was found to be 0.87 nM. Moreover, the “VAL norm to TPP-9809 (1 to 1 ratio)” value in assay [4] was found to be 0.4.

B10: TPP-23373 (antibody, human IgG4 S228P, lambda, V domains shown)
VH: B7 VH with S30Y
VL: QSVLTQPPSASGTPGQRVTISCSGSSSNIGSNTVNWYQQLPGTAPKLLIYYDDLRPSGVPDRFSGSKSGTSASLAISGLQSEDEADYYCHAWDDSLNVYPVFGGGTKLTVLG
Turning to B10, the “EC50 [nM], MCM assay” value in assay [3] was 0.63 nM. Further, in assay [4], the “VAL norm to TPP-9809 (1 to 1 ratio)” value was determined as 0.35 and the “VAL norm to TPP-9809 (1 to 5 ratio)” value was found to be 0.2.

B11: TPP-23375 (antibody, human IgG4 S228P, lambda, V domains shown)
VH: B7 VH with S30Y
VL: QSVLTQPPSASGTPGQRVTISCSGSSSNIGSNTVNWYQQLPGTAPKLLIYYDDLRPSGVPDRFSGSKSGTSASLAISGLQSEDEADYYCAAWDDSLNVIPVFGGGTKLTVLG
With B11, the “EC50 [nM], MCM assay” value in assay [3] is 1.03 nM. For the same molecule, in assay [4], the “VAL norm to TPP-9809 (1 to 1 ratio)” value was determined as 0.3 and the “VAL norm to TPP-9809 (1 to 5 ratio)” value amounted to 0.16.

B12: TPP-23347 (antibody, human IgG4 S228P, lambda, V domains shown)
VH: B7 VH with S30Y, S35L, Y53T
VL: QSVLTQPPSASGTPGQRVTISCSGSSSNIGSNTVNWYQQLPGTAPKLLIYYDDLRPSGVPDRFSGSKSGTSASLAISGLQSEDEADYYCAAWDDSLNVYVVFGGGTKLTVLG
For B12, in assay [3], the “EC50 [nM], MCM assay” value was 0.67 nM. Also, in assay [4], the “VAL norm to TPP-9809 (1 to 1 ratio)” value is 0.3 and the “VAL norm to TPP-9809 (1 to 5 ratio)” value was determined as 0.16.

B13: TPP-23345 (antibody, human IgG4 S228P, lambda, V domains shown)
VH: B7 VH
VL: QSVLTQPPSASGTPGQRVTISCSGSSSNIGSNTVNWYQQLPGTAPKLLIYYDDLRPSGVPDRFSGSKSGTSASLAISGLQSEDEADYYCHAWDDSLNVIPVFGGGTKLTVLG
Take B13: in assay [3], the “EC50 [nM], MCM assay” value was found to be 0.93 nM. Further, in assay [4], the “VAL norm to TPP-9809 (1 to 1 ratio)” value came to 0.27 and the “VAL norm to TPP-9809 (1 to 5 ratio)” value was determined as 0.08.

B14: TPP-23374 (antibody, human IgG4 S228P, lambda, V domains shown)
VH: B7 VH with S30Y
VL: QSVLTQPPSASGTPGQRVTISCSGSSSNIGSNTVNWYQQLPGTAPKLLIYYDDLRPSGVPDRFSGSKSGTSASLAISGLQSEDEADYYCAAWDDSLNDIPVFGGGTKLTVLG
As for B14, the “EC50 [nM], MCM assay” value in assay [3] was 0.3 nM. In assay [4], the “VAL norm to TPP-9809 (1 to 1 ratio)” value worked out at 0.19 and the “VAL norm to TPP-9809 (1 to 5 ratio)” value was determined as 0.08.

B15: TPP-23341 (antibody, human IgG4 S228P, lambda, V domains shown)
VH: B7 VH
VL: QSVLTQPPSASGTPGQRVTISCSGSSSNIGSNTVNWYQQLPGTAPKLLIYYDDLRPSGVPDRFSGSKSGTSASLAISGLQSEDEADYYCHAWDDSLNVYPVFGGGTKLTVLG
Consider B15, for which the “EC50 [nM], MCM assay” value in assay [3] is 0.9 nM. Besides, in assay [4], the “VAL norm to TPP-9809 (1 to 1 ratio)” value is 0.38 and the “VAL norm to TPP-9809 (1 to 5 ratio)” value was found to be 0.18.

B16: TPP-23338 (antibody, human IgG4 S228P, lambda, V domains shown)
VH: B7 VH
VL: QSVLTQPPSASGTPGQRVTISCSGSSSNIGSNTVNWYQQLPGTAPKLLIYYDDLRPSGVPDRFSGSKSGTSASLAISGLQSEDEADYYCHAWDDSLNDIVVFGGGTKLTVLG
As to B16, in assay [3], the “EC50 [nM], MCM assay” value was found to be 0.6 nM. Also, in assay [4], the “VAL norm to TPP-9809 (1 to 1 ratio)” value worked out at 0.33.

B17: TPP-23334 (antibody, human IgG4 S228P, lambda, V domains shown)
VH: B7 VH
VL: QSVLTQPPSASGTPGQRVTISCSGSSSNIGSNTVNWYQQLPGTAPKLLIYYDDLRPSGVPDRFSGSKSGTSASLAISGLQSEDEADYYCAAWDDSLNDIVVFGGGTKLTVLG
Consider B17, for which the “EC50 [nM], MCM assay” value in assay [3] is 0.67 nM. In assay [4], the “VAL norm to TPP-9809 (1 to 1 ratio)” value stood at 0.28 and the “VAL norm to TPP-9809 (1 to 5 ratio)” value was found to be 0.11.
